According to patent publication US20180022815A1:

Target: BCMA and CD138 on H929 cells
Test: flow cytometry on H929 cells, sheep antihuman Ig-FITC secondary

B1: bi-specific CD138/BCMA-IgG (dual CD138 scFv - 218S linker - BCMA scFv fused with a human IgG Fc) (bispecific antibody, not shown: a dimerising Fc or GST)
chain: DIQMTQSTSSLSASLGDRVTISCSASQGINNYLNWYQQKPDGTVELLIYYTSTLQSGVPSRFSGSGSGTDYSLTISNLEPEDIGTYYCQQYSKLPRTFGGGTKLEIKGSTSGSGKPGSSEGSTKGQVQLQQSGSELMMPGASVKISCKATGYTFSNYWIEWVKQRPGHGLEWIGEILPGTGRTIYNEKFKGKATFTADISSNTVQMQLSSLTSEDSAVYYCARRDYYGNFYYAMDYWGQGTSVTVSSGSTSGSGKPGSSEGSTKDIVLTQSPASLAVSLGDRATINCRASESVSVIGAHLIHWYQQKPGQPPKLLIYLASNLETGVPARFSGSGSGTDFTLTISSLQAEDAAIYYCLQSRIFPRTFGQGTKLEIKGSTSGSGKPGSSEGSTKGQVQLVQSGSELKKPGASVKVSCKASGYTFTDYSIQWVRQAPGQGLEWMGWIQTETREPAYAYDFRGRFVFSLDTSVSTAYLQISSLKAEDTAVYYCALDYSYAMDYWGQGTLVTVSS
A percent of H929 cells stained ("efficiency") of 84.8% was found for B1 in this work.
